The source of these data is patent publication US8790905B2, “Fructosyl peptide oxidase” (Kyowa Medex Co., Ltd, priority 2008, dated 2014).

By Km is commonly meant the concentration of substrate that gives half-maximal velocity.

Format in all cases: biochemical, Emericella nidulans KY125
Substrate in series [1]: N[C@@H](CCCCNCC1(O)OC[C@@H](O)[C@@H](O)[C@@H]1O)C(=O)O
In words: Km values of the fructosyl peptide oxidase FPOX-9 towards each type of substrate. To be noted: other: Tris buffer (pH 7.5), 37° C. Here is the method: (§1) Substrate specificity of the novel FPOX-9 obtained in Example 2 to glycated peptides and/or glycated amino acids were measured using the following Reagent 1 to Reagent 3.
(§2) Herein, the FPOX-9 solution used was the one prepared in Example 3.
(§3) As substrates, glycated peptide α-FVH as well as glycated amino acids ε-FK and α-FV were used.
(§4) α-FVH solutions and α-FV solutions were prepared using Tris buffer to obtain each of the following concentrations in Reagent 3: 0, 0.05, 0.1, 0.5, 1, 2, 5, and 10 mmol/L. ε-FK solutions were prepared using Tris buffer to obtain each of the following concentrations in Reagent 3: 0, 1, 2, 5, 10, 20, 40, 50, 80, and 100 mmol/L.
(§5) 170 μL of Reagent 2 was added to 10 μL of Reagent 1, and after the reaction at 37° C. for five minutes, 20 μL of Reagent 3 was added, and the reaction was further continued at 37° C. for five minutes, a total of ten minutes. The absorbance at 546 nm (main wavelength)/800 nm (sub-wavelength) for 0 mmol/L at 5.4 minutes after starting the reaction was defined as A0′ (Abs), and the absorbance at 546 nm (main wavelength)/800 nm (sub-wavelength) for each substrate concentration at 5.4 minutes after starting the reaction was defined as A0^x (Abs), and ΔA0 was calculated according to Equation (I). (Mathematical Expression 1) ΔA0=A0^x−A0′(Abs) (I)
(§6) The absorbance at 546 nm (main wavelength)/800 nm (sub-wavelength) for 0 mmol/L at 6.6 minutes after starting the reaction was defined as As′ (Abs), and the absorbance at 546 nm (main wavelength)/800 nm (sub-wavelength) for each substrate concentration at 6.6 minutes after starting the reaction was defined as As^x (Abs), and ΔAs was calculated according to Equation (II). (Mathematical Expression 2) ΔAs=As^x−As′(Abs) (II)
(§7) The enzyme activity (U/mL) for each substrate concentration was calculated by substituting the obtained ΔA0 and ΔAs total amount of reaction solution (0.2 mL), molar extinction coefficient of TOOS (39,200), reaction time (1.2 minutes), and the light path length of the reaction cuvette (0.5 cm) into Equation (III). […]

Substrate in series [2]: CC(C)[C@H](NCC1(O)OC[C@@H](O)[C@@H](O)[C@@H]1O)C(=O)N[C@@H](Cc1c[nH]cn1)C(=O)O
The description is as above. To be noted: other: Tris buffer (pH 7.5), 37° C. As for the experimental part: as §1, §2, §3, §4, §5, §6, §7

Substrate in series [3]: CC(C)[C@H](NCC1(O)OC[C@@H](O)[C@@H](O)[C@@H]1O)C(=O)O
Described as above. To be noted: other: Tris buffer (pH 7.5), 37° C. Here is the method:
as §1, §2, §3, §4, §5, §6, §7

Substrate in series [4]: N[C@@H](CCCCNCC1(O)OC[C@@H](O)[C@@H](O)[C@@H]1O)C(=O)O
Put plainly: Km values of the fructosyl peptide oxidase FPOX-15 towards each type of substrate. To be noted: 37° C. Here is the method: (§8) The substrate specificity of FPOX-15 obtained in Example 2 to glycated peptides and/or glycated amino acids was measured using the following Reagent 1 to Reagent 3.
(§9) Herein, for the FPOX-15 solution, a solution produced by four-fold dilution of the solution obtained in Example 3 was used.
as §3
(§10) α-FVH solutions and α-FV solutions were prepared using distilled water to obtain the following concentrations in Reagent 3: 0, 2, 2.5, 3, and 3.66 mmol/L. ε-FK solution was prepared using distilled water to obtain the following concentrations in Reagent 3: 0, 20, 30, 40, and 50 mmol/L.
as §5, with “150” for “170”, “5” for “10”, “wavelength)/700” for “wavelength)/800”
(§11) The absorbance at 546 nm (main wavelength)/700 nm (sub-wavelength) for 0 mmol/L at 6.6 minutes after starting the reaction was defined as As′ (Abs), and the absorbance at 546 nm (main wavelength)/700 nm (sub-wavelength) for each substrate concentration at 6.6 minutes after starting the reaction was defined as As^x (Abs), and ΔAs was calculated according to Equation (II). (Mathematical Expression 2) ΔAs=As^x−As′(Abs) (II)
(§12) The enzyme activity (U/mL) for each substrate concentration was calculated by substituting the obtained ΔA0 and ΔAs, total amount of reaction solution (0.2 mL), molar extinction coefficient of EMSE (33,800), reaction time (1.2 minutes), and the light path length of the reaction cuvette (0.5 cm) into Equation (III). (Mathematical Expression 3) Enzyme activity(U/mL)={(ΔAs−ΔA0)×total amount of reaction solution(mL)}/{molar extinction coefficient ε/1000×amount of enzyme solution(mL)×0.5×reaction time(min)×light path length(cm)} (III)
(§13) For each of the substrates α-FVH, ε-FK, and α-FV, a plot was produced with substrate concentration (mmol/L) on the horizontal axis and the corresponding enzyme activity (U/mL) on the vertical axis, and the substrate concentration corresponding to ½ of the maximum enzyme activity was calculated as the Km value (Michaelis constant).

Substrate in series [5]: CC(C)[C@H](NCC1(O)OC[C@@H](O)[C@@H](O)[C@@H]1O)C(=O)N[C@@H](Cc1c[nH]cn1)C(=O)O
The description is as above. To be noted: 37° C. As for the experimental part:
as §8, §9, §3, §10
as §5, with “150” for “170”, “5” for “10”, “wavelength)/700” for “wavelength)/800”
as §11, §12, §13

Substrate in series [6]: CC(C)[C@H](NCC1(O)OC[C@@H](O)[C@@H](O)[C@@H]1O)C(=O)O
The series is described as above. To be noted: 37° C. As for the experimental part:
as §8, §9, §3, §10
as §5, with “150” for “170”, “5” for “10”, “wavelength)/700” for “wavelength)/800”
as §11, §12, §13

Where [7] appears, read: other: pH 6.0, sodium dihydrogen phosphate, pH 6.0.
The mark [8] stands for this setting: other: pH 7.0, sodium dihydrogen phosphate, pH 7.0.
The mark [9] stands for this setting: other: pH 8.0, sodium dihydrogen phosphate, pH 8.0.

Where a chain is given by its changes, count along the chain named.

B1: Emericella nidulans KY125 fructosyl peptide oxidase variant FPOX-9 (Ser71Tyr, Ile94Met, Glu104Lys, Lys109Arg, Phe269Ile), SEQ ID NO: 1 (Aspergillus nidulans; … (protein)
chain: MAPRANTKIIVVGGGGTMGSSTALHLLRAGYTPSNITVLDTYPIPSAQSAGYDLNKIMSIRLRNKPDLQLYLEALDMWKNDPLFKPFFHNVGQMDVSSTEEGIKGLRMRYQSLLDAGIGLEKTNFLLESEDEILAKAPHFTREQIKGWKGLFCGDGGWLAAAKAINAIGQFLKEQGVKFGFGGAGTFKKPLFADADEKTCIGVETVDGTKYYADKVVLAAGAWSSTLVDLEEQCVSKAWVFAHIQLTPAEAAAYKNTPVIYDGDYGFFIEPNENGIIKVCDEFPGFTHFKMHQPYGSPVPKPISVPRSHAKHPTDTYPHASEVTIKKAINRFLPRFNDKELFNRAMCWCTDTADANLLVCEHPRWKGFYLATGDSGHSFKLLPNIGKHVVELLEGRLESVFKDAWRWRPGSGDALKSRRAAPAKDLADMPGWRNEAKM
With B1, the Km came to 4000 µM in series [1], 500 µM in series [2] and 600 µM in series [3].

B2: Emericella nidulans KY125 fructosyl peptide oxidase variant FPOX-15 (FPOX-9 with Met58Phe, Ser59Gly, Gly105Lys, Gly183Glu, Asn272Asp, Pro302Leu), SEQ ID NO: 3 … (protein)
chain: B1 chain with M58F, S59G, G105K, G183E, N272D, P302L
Consider B2, for which the Michaelis-Menten constant (Km) was determined as 23200 µM in series [4] (setting [7]); 19200 µM in series [4] (setting [8]); 9600 µM in series [4] (setting [9]); 400 µM in series [5] (setting [7]); 500 µM in series [5] (setting [8]); 800 µM in series [5] (setting [9]). Further, the results for the Michaelis-Menten constant (Km) in series [6] (setting [7]), in series [6] (setting [8]) and in series [6] (setting [9]) were 200 µM, 300 µM and 300 µM, respectively.
